The source of these data is patent US20120277143A1 (Janssen / Centocor, published 2012).

In one assay the target is T1, human IL13 R130Q (human, UniProt P35225 35-146, biotinylated (sites not given)).
T1 construct: Peprotech; also called IL13R13Q; R111Q
Nature of the assay: Luminex competition, 80 pM biotin-IL13 R130Q binding to IL13Ra2-Fc beads. The method, then: Binding protein inhibition of IL13 binding to Rα2 was assessed using IL13Rα2-Fc (R&D Systems) conjugated to carboxylated Luminex microspheres according to the manufacturer's protocol. For biotinylation of IL13, recombinant human IL13 R130Q (Peprotech) was biotinylated at a 4:1 ratio using EZ-Link NHS-LC-Biotin (Pierce, #21336) for 2 hours at RT. The protein was dialyzed in PBS overnight to remove excess biotinylation reagent. For neutralization experiments, 5000 IL13 Rα2-Fc conjugated beads in 50 μl were added to each well of a 96-well filter plate (Millipore). 50 μl of biotinylated human IL13 at 1 ng/ml (80 pM) was mixed with an appropriate dilution of binding protein in Luminex Assay Buffer (PBS, 1% BSA, pH 7.4). The plate was incubated for 1 hour at RT in the dark on a plate shaker, set to shake vigorously to avoid bead aggregation. The plate was washed 3 times with 150 μl of wash buffer (PBS, 1% BSA, pH 7.4, 0.05% Tween-20) using a vacuum manifold followed by the addition of 50 μl of Streptavidin PE at 25 μg/ml and incubated at RT for 20 minutes. The plates were washed again and 100 μl of sheath fluid was added and the plate was placed on the shaker for 1 minute. Plates were read using a Luminex® 100 system; data were plotted as a function of binding protein concentration. IC₅₀ values were determined by fitting the data to the equation for sigmoidal dose response using PRIZM software (GraphPAD PRIZM).

For a further assay, the target named is cyno IL13 (cynomolgus monkey, UniProt Q0PW92 21-132). Nature of the assay: cell-based or functional assay.
cyno IL13, sequence (Q0PW92 entry or part of it): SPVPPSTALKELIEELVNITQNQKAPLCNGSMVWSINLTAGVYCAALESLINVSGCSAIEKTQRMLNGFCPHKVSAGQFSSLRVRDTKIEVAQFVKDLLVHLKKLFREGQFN
Assay [1] deals with T2, human IL13 (human, UniProt P35225 35-146, biotinylated in the SPR assays (sites not given)). Put plainly: cell-based or functional assay.
T2 sequence (P35225 other isoform, or with tags, fused parts or gaps limits assumed): as the sequence (Q0PW92 entry or part of it) above, with S1G, K10R, V42M, N67S, R83H, V100L, Q110R counted along it
In assay [2] the target is T2, human IL13. Put plainly: SPR BIAcore, biotin-IL13 on SA chip, global fit. The method, then:
Recombinant human IL13 (Peprotech) was minimally biotinylated on ice using sulfo-NHS-LCLC-Biotin and desalted into the experimental running buffer containing 10 mM HEPES, 150 mM NaCl, pH 7.4, 0.01% Tween-20, and 0.1 mg/mL BSA. Biotinylated IL13 was captured at three different surface densities (from about 150, 50, and 25 RU) onto three different BIAcore SA (streptavidin) sensor chips. Each binding protein sample was tested at 40 nM as the highest concentration in a 3-fold dilution series over the three different density IL13 surfaces. The dissociation phase for the highest concentration of the binding protein sample was monitored for one hour. The response data from each of the different density surfaces was globally fitted in order to extract estimates of the kinetic and affinity constants which are provided in Table 7 below.

Assay [3] has as its target T2, human IL13. Put plainly: SPR ProteOn, biotin-hIL13 on streptavidin, 1:1 global fit. The protocol: Complete kinetic data describing binding of various engineered binding protein molecules to human IL13 was measured using a method similar to that described above for the single point affinity analysis. Briefly, streptavidin (Pierce) was immobilized to similar levels (˜1800 RUs) on all six channels of a ProteOn GLC chip via amine coupling (pH 5.0). Biotinylated hIL13 was captured at different surface densities (600˜100 RUs) on different channels. Protein binding was tested starting at 40 nM diluted in a 3-fold concentration series over the different density IL13 surfaces; a buffer sample was injected to monitor the baseline stability. Dissociation phases for all concentrations of each binding protein sample were monitored for one hour at a flow rate of 100 μl/min. Response data for all concentration series from the different density surfaces were globally fit to a 1:1 simple langmuir binding model to extract values of the kinetic (kₒₙ, koff) and affinity (KD) constants provided in Table 16.

T1 sequence (P35225 35-146 limits assumed, stated change not applied): as the sequence (Q0PW92 entry or part of it) above, with S1G, K10R, V42M, N67S, R83H, V100L counted along it

B1: 7D7 (designed binder)
chain: DLGKKLLEAARAGQDDEVRILMANGADVNATDTYGSTPLHLAARHCHQEIVEVLLKHGADVNANDFIGDTPLHLAAWHGHLEIVEVLLKNGADVNAMDVTGETPLHLAAYHGHLDIVEVLLKNGADVNAQDKFGKTAFDISIDNGNEDLAEILQKLN
notes: N-Cap-(AR)3-C-Cap
Turning to B1, the IC50 with human IL13 R130Q turned out to be 0.058 nM. For the same molecule, the “Cyno IL13 STAT6 IC50” value with cyno IL13 was determined as 0.162 nM. Also, in the assay with human IL13 [1], the “STAT6 Phospho IC50” value was determined as 0.0105 nM and the “TARC expression IC50” value was determined as 0.354 nM. For the same molecule, in the assay with human IL13 [2], binding was put at a Kd of 0.204 nM and the koff amounted to 6.25e-05 s⁻¹.

B2: 10A6 (designed binder)
chain: DLGKKLLEAARAGQDDEVRILMANGADVNAIDHFDSTPLHLAARHGHLEIVEVLLKNGADVNADDFLGDTPLHLAAYHGHLDIVEVLLKHGADVNAQDKFGKTAFDISIDNGNEDLAEILQKLN
notes: N-Cap-(AR)2-C-Cap, only 2 ARs
Molecule B2 registered an IC50 in the assay with human IL13 R130Q of 0.0075 nM. Further, the “Cyno IL13 STAT6 IC50” value with cyno IL13 is 1.93 nM. Also, in the assay with human IL13 [1], the “STAT6 Phospho IC50” value was 0.008 nM and the “TARC expression IC50” value is 0.123 nM. In the assay with human IL13 [2], this molecule returned a Kd of 0.0729 nM, a koff of 0.000201 s⁻¹ and a kon of 2.76e+06 M⁻¹ s⁻¹.

B3: 6D4 (designed binder)
chain: DLGKKLLEAARAGQDDEVRILMANGADVNAADDYGSTPLHLAARSGHLEIVEVLLKHGADVNANDFIGDTPLHLAAYNGHLEIVEVLLKNGADVNATDITGETPLHLAAERGHLEIVEVLLKNGADVNTQDKFGKTAFDISIDNGNEDLAEILQKLN
notes: N-Cap-(AR)3-C-Cap
B3 displayed a half-inhibitory concentration (IC50) in the assay with human IL13 R130Q of 0.0048 nM. Besides, the “Cyno IL13 STAT6 IC50” value with cyno IL13 is 0.0513 nM. For the same molecule, in the assay with human IL13 [1], the “STAT6 Phospho IC50” value is 0.0042 nM and the “TARC expression IC50” value was found to be 0.0833 nM. Further, in the assay with human IL13 [2], the Kd was found to be 0.0776 nM, the koff was found to be 9.08e-05 s⁻¹ and the kon was determined as 1.17e+06 M⁻¹ s⁻¹.

B4: 7C6 (designed binder)
chain: DLGKKLLEAARAGQDDEVRILMANGADVNAMDKYGSTPLHLAARSGHLEIVEVLLKHGADVNATDFIGDTPLHLAAYHGHLEIVEVLLKHGADVNAEDITGETPLHLAAESGHLEIVEVLLKHGADVNAQDKFGKTAFDISIDNGNEDLAEILQKLN
notes: N-Cap-(AR)3-C-Cap
B4: in the assay with human IL13 R130Q, the IC50 was 0.0106 nM. Further, in the assay with cyno IL13, the “Cyno IL13 STAT6 IC50” value turned out to be 0.048 nM. Also, in the assay with human IL13 [1], the “STAT6 Phospho IC50” value is 0.0027 nM and the “TARC expression IC50” value stood at 0.159 nM. In the assay with human IL13 [2], the Kd stood at 0.0464 nM, the off-rate (koff) turned out to be 0.000224 s⁻¹ and the kon came out at 4.82e+06 M⁻¹ s⁻¹.

B5: 6G11 (designed binder)
chain: DLGKKLLEAARAGQDDEVRILMANGADVNAEDILGITPLHLAAHHGHLEIVEVLLKHGADVNANDFAGYTPLHLAAVYGHLEIVEVLLKYGADVNATDAWGETPLHLAAYTGHLEIVEVLLKHDADVNAQDKFGKTAFDISIDNGNEDLAEILQKLN
notes: N-Cap-(AR)3-C-Cap
The molecule B5 came in with an IC50 with human IL13 R130Q of 0.0101 nM. Also, the “Cyno IL13 STAT6 IC50” value in the assay with cyno IL13 was 1.21 nM. Also, in the assay with human IL13 [1], the “STAT6 Phospho IC50” value came out at 0.0198 nM and the “TARC expression IC50” value was found to be 0.282 nM. In the assay with human IL13 [2], the Kd came out at 0.106 nM, the koff worked out at 8e-05 s⁻¹ and the kon is 754000 M⁻¹ s⁻¹.

B6: 9F8 (designed binder)
chain: DLGKKLLEAARAGQDDEVRILMANGADVNASDIFGSTPLHLAARHGHLEIVEVLLKYGADVNAMDFIGDTPLHLAAYRGHLEIVEVLLKYGVDVNADDHGDTPLHLAASMGHLEIVEVLLKNGADVNAQDKFGKTAFDISIDNGNEDLAEILQKLN
notes: ankyrin repeat protein
For B6, the “STAT6 Phospho IC50” value with human IL13 [1] amounted to 0.055 nM. Besides, in the assay with human IL13 [2], binding was put at a Kd of 0.11 nM, the koff was 9.9e-05 s⁻¹ and the kon was 930000 M⁻¹ s⁻¹. Also, in the assay with human IL13 [3], the Kd is 0.00164 nM.

B7: 9E11 (designed binder)
chain: DLGKKLLEAARAGQDDEVRILMANGADVNASDIYGSTPLHLAARHGHLEIVEVLLKNGADVNANDMIGDTPLHLAAYHGHLEIVEVLLKHGADVNASDITGETPLHLAAHNGHLEIVEVLLKYGADVNAQDKFGKTAFDISIDNGNEDLAEILQKLN
notes: N-Cap-(AR)3-C-Cap
With B7, in the assay with human IL13 R130Q, the IC50 amounted to 0.0058 nM. The “Cyno IL13 STAT6 IC50” value with cyno IL13 came to 0.0334 nM. In the assay with human IL13 [1], the “STAT6 Phospho IC50” value was determined as 0.0009 nM and the “TARC expression IC50” value amounted to 0.109 nM. In addition, in the assay with human IL13 [2], the Kd amounted to 0.021 nM, the koff was 1.3e-05 s⁻¹ and the kon came out at 640000 M⁻¹ s⁻¹.

B8: 5B9 (designed binder)
chain: DLGKKLLEAARAGQDDEVRILMANGADVNATDVFGSTPLHLAARHGHLEIVEVLLKHGADVNATDFIGDTPLHLAAYHGHLEIVEVLLKHGADVNAKNGETPLHLAAYHGHPDIVEVLLKHGADVNAQDKFGKTAFDISIDNGNEDLAEILQKLN
notes: N-Cap-(AR)3-C-Cap
In turn, B8 showed an IC50 with human IL13 R130Q of 0.0134 nM. In addition, in the assay with cyno IL13, the “Cyno IL13 STAT6 IC50” value turned out to be 0.653 nM. Also, in the assay with human IL13 [1], the “STAT6 Phospho IC50” value is 0.0165 nM and the “TARC expression IC50” value is 0.372 nM. In the assay with human IL13 [2], this molecule yielded a Kd of 0.169 nM, a koff of 0.000179 s⁻¹ and a kon of 1.06e+06 M⁻¹ s⁻¹.
